Reference: patent US20250092146A1 (ABILITA BIO, published 2025)

T1: human CCR7 (hCCR7) (human, UniProt P32248 25-378)
T1 construct: HEK293 cells stably expressing hCCR7
T1 sequence: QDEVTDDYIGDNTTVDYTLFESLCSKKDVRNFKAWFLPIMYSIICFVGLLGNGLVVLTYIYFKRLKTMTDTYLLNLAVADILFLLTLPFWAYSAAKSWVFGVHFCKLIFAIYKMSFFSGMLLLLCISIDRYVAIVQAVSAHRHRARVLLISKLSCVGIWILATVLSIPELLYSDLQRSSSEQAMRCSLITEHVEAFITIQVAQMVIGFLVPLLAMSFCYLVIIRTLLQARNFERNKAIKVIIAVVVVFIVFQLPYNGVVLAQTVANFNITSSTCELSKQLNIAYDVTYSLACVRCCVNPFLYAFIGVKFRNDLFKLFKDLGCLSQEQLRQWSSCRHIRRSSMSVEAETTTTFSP


Assays:
[1] = biological target: T1, human CCR7 (hCCR7); assay: flow cytometry, HEK293 cells stably expressing hCCR7, anti-VHH detection
Protocol: Recombinant cells expressing hCCR8 were resuspended to a final concentration of 1.0×10⁶ cells/ml in FACS buffer. […] Dilutions of purified VHHs were incubated with cells for 60 min. Individual samples were distributed into 96-well v-bottom plates and incubated for one hour at 4° C. […] Binding was determined in parallel on HEK293 cells stably expressing the closely related receptor hCCR7 (SEQ ID NO: 41), as control for binding specificity.

[2] = biological target: T2, human CCR8 (hCCR8) (human, UniProt P51685 1-355); assay: cell-based or functional assay
[3] = biological target: T2, human CCR8 (hCCR8); assay: competition with 10 nM VHH-1-Fc, flow cytometry on HEK293-hCCR8 cells
Protocol: Binding studies were conducted on hCCR8 expressing cells for 60 minutes at 4° C., followed by two washes and then 30 minutes incubation at 4° C. with the Zenon R-Phycoerythrin Anti-human IgG secondary antibody (ThermoFisher Scientific, #Z-25455). Binding to cells was assessed by flow cytometry.

[4] = biological target: T3, Chimera A (hCCR8 with its N-terminus replaced by amino acids 1-22 of hCCR1) (human (hCCR8/hCCR1 chimera), UniProt P51685 18-355); assay: flow cytometry (MFI), HEK293T cells expressing Chimera A (hCCR8 with hCCR1 N-terminus)
T3 construct: Transiently transfected HEK293T cells
From the text: Determination of binding epitope location on hCCR8 was done for representative VHH-Fc antibodies by flow cytometry analysis using HEK293T cells expressing hCCR8 or two receptor chimeras comprised of combined sequence elements taken from hCCR8 (SEQ ID NO: 37) and hCCR1 (SEQ ID NO: 39). In the first, Chimera A based on hCCR8, the N-terminal region of the receptor (SEQ ID NO: 38) was replaced with a sequence encoding the N-terminal region of hCCR1 (SEQ ID NO: 40). In Chimera B based on hCCR1, the N-terminal region of the receptor was replaced by the sequence encoding the hCCR8 N-terminus (SEQ ID NO: 38).

T2 sequence (P51685 whole entry): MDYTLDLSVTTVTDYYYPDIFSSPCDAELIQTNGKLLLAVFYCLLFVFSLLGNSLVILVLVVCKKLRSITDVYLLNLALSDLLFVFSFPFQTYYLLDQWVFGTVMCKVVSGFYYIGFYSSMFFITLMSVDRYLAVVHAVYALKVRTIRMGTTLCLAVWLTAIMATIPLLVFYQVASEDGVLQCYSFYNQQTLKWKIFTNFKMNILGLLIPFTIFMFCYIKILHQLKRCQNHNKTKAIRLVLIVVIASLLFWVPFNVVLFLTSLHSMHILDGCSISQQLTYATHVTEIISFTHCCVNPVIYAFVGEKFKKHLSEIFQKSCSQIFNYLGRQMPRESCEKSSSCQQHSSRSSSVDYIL
T3 sequence (P51685 other isoform, or with tags, fused parts or gaps mutant): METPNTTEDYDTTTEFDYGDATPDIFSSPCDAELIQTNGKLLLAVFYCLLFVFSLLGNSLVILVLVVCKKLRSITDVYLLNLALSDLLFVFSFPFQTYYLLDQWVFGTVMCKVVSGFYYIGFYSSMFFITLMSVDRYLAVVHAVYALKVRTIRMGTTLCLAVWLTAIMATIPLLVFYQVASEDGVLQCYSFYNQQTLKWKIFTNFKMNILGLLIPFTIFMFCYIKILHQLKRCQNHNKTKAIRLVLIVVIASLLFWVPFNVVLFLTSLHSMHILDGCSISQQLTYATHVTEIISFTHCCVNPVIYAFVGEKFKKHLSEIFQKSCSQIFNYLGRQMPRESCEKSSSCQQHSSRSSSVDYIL

EC50 (nM), ADCC reporter assay, mouse FcγRIV effector cells, HuT-78 target cells [2] [nM] | Fold Induction, ADCC reporter assay, mouse FcγRIV effector cells, HuT-78 target cells [2] [fold] | Binder | also measured
 |  | VHH-1 (VHH, not shown: small tags and cut ends, Monovalent VHH purified from E. coli periplasm (PelB signal peptide)) VHH: QVQLQESGGGLVQAGGSLRLSCVASGSTSSIRRIGWYRQAPGKQRELVARFSSGGGTNYADFVKGRFTISGDNAKNTMYLQMNSLKPEDTAVYYCSARRLLGTSRVDYWGQGTQVTVSS | binding result [1]: no binding
 |  | VHH-3 (VHH, not shown: small tags and cut ends, Monovalent VHH purified from E. coli periplasm (PelB signal peptide)) VHH: QVQLQESGGGLVQAGGSLRLSCVASGSTSSIRRIGWYRQAPGKQRELVARFSSGGGTNYADFVKGRFTISGDNAKNTMYLQMNSLKPEDTAVYYCGARRLLGTSRVDYWGQGTQVTVSS | binding result [1]: no binding
0.007 | 12 | VHH-1.3-7-mFc (Fc fusion) EVQLVESGGGLVQPGGSLRLSCAVSGSTSSIRRIGWYRQAPGKGRELVAHFSSGGGTNYADSVKGRFTISGDKSKNTMYLQMNSLRAEDTAVYYCSARRLLGTSRVDYWGQGTTVTVSSEPRGPTIKPCPPCKCPAPNLLGGPSVFIFPPKIKDVLMISLSPIVTCVVVDVSEDDPDVQISWFVNNVEVHTAQTQTHREDYNSTLRVVSALPIQHQDWMSGKEFKCKVNNKDLPAPIERTISKPKGSVRAPQVYVLPPPEEEMTKKQVTLTCMVTDFMPEDIYVEWTNNGKTELNYKNTEPVLDSDGSYFMYSKLRVEKKNWVERNSYSCSVVHEGLHNHHTTKSFSRTPGK | 
0.042 | 11.4 | VHH-1.3-21-mFc (Fc fusion) EVQLVESGGGLVQPGGSLRLSCAVSGSTSSIRGIGWYRQAPGKGRELVARFISGGGTNYADSVKGRFTISADNSKNTMYLQMNSLRAEDTAVYYCSARRLLGTSRVDYWGQGTQVTVSSEPRGPTIKPCPPCKCPAPNLLGGPSVFIFPPKIKDVLMISLSPIVTCVVVDVSEDDPDVQISWFVNNVEVHTAQTQTHREDYNSTLRVVSALPIQHQDWMSGKEFKCKVNNKDLPAPIERTISKPKGSVRAPQVYVLPPPEEEMTKKQVTLTCMVTDFMPEDIYVEWTNNGKTELNYKNTEPVLDSDGSYFMYSKLRVEKKNWVERNSYSCSVVHEGLHNHHTTKSFSRTPGK | 
0.024 | 11.3 | VHH-1.3-19-mFc (Fc fusion) EVQLVESGGGLVQPGGSLRLSCAVSGSTSSIRGIGWYRQAPGKGRELVAHFSSGGGTNYADSVKGRFTISGDKSKNTMYLQMNSLRAEDTAVYYCSARRLLGTSRVDYWGQGTQVTVSSEPRGPTIKPCPPCKCPAPNLLGGPSVFIFPPKIKDVLMISLSPIVTCVVVDVSEDDPDVQISWFVNNVEVHTAQTQTHREDYNSTLRVVSALPIQHQDWMSGKEFKCKVNNKDLPAPIERTISKPKGSVRAPQVYVLPPPEEEMTKKQVTLTCMVTDFMPEDIYVEWTNNGKTELNYKNTEPVLDSDGSYFMYSKLRVEKKNWVERNSYSCSVVHEGLHNHHTTKSFSRTPGK | 
0.345 | 9.74 | VHH-1.3-20-mFc (Fc fusion) EVQLVESGGGLVQPGGSLRLSCAVSGSTSSIRGIGWYRQAPGKGRELVARFISGGGTNYADSVKGRFTISGDNSKNTMYLQMNSLRAEDTAVYYCSARILLGTSRVDYWGQGTQVTVSSEPRGPTIKPCPPCKCPAPNLLGGPSVFIFPPKIKDVLMISLSPIVTCVVVDVSEDDPDVQISWFVNNVEVHTAQTQTHREDYNSTLRVVSALPIQHQDWMSGKEFKCKVNNKDLPAPIERTISKPKGSVRAPQVYVLPPPEEEMTKKQVTLTCMVTDFMPEDIYVEWTNNGKTELNYKNTEPVLDSDGSYFMYSKLRVEKKNWVERNSYSCSVVHEGLHNHHTTKSFSRTPGK | 
 |  | CCL1 (ligand, UniProt P22362 24-96, looked up, also called hCCR8 agonist CCL1) KSMQVPFSRCCFSFAEQEIPLRAILCYRNTSSICSNEGLIFKLKRGKEACALDTVGWVQRHRKMLRHCPSKRK | binding result [3]: binds
 |  | BMS-4A19 (antibody, human IgG1, kappa, Comparator from WO2021194942A1, made in HEK293 cells) heavy: not shown light: DIVMTQTPLSLSVTPGQPASISCRSSQSLFHSSGNTYLHWYLQKPGQPPQLLIYKVSNRFSGVPDRFSGSGSGTDFTLKISRVEAEDVGVYYCSQSTHVPFTFGQGTKLEIKRTVAAPSVFIFPPSDEQLKSGTASVVCLLNNFYPREAKVQWKVDNALQSGNSQESVTEQDSKDSTYSLSSTLTLSKADYEKHKVYACEVTHQGLSSPVTKSFNRGEC | binding result [4]: no binding
0.015 | 12 | VHH-1-mFc (Fc fusion) QVQLQESGGGLVQAGGSLRLSCVASGSTSSIRRIGWYRQAPGKQRELVARFSSGGGTNYADFVKGRFTISGDNAKNTMYLQMNSLKPEDTAVYYCSARRLLGTSRVDYWGQGTQVTVSSEPRGPTIKPCPPCKCPAPNLLGGPSVFIFPPKIKDVLMISLSPIVTCVVVDVSEDDPDVQISWFVNNVEVHTAQTQTHREDYNSTLRVVSALPIQHQDWMSGKEFKCKVNNKDLPAPIERTISKPKGSVRAPQVYVLPPPEEEMTKKQVTLTCMVTDFMPEDIYVEWTNNGKTELNYKNTEPVLDSDGSYFMYSKLRVEKKNWVERNSYSCSVVHEGLHNHHTTKSFSRTPGK | 
